Assay results published in IntAct's records for PubMed 19513235.

B1: Mitogen-activated protein kinase kinase 1 (Arabidopsis thaliana (Mouse-ear cress)), Q94A06 (parent)
chain: MNRGSLCPNPICLPPLEQSISKFLTQSGTFKDGDLRVNKDGIQTVSLSEPGAPPPIEPLDNQLSLADLEVIKVIGKGSSGNVQLVKHKLTQQFFALKVIQLNTEESTCRAISQELRINLSSQCPYLVSCYQSFYHNGLVSIILEFMDGGSLADLLKKVGKVPENMLSAICKRVLRGLCYIHHERRIIHRDLKPSNLLINHRGEVKITDFGVSKILTSTSSLANSFVGTYPYMSPERISGSLYSNKSDIWSLGLVLLECATGKFPYTPPEHKKGWSSVYELVDAIVENPPPCAPSNLFSPEFCSFISQCVQKDPRDRKSAKELLEHKFVKMFEDSDTNLSAYFTDAGSLIPPLAN
partner: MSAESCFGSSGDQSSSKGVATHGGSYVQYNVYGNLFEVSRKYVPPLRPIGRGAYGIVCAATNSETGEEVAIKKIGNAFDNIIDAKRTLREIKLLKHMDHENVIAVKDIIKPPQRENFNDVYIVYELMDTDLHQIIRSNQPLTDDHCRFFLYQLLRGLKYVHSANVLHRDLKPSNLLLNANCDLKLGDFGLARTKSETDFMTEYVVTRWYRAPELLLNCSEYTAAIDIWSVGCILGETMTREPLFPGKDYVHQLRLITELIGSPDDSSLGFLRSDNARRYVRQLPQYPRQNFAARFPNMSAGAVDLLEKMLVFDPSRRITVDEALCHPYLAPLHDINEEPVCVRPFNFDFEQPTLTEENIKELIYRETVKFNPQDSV
B2: Mitogen-activated protein kinase kinase 2 (Arabidopsis thaliana (Mouse-ear cress)), Q9S7U9 (parent)
chain: MKKGGFSNNLKLAIPVAGEQSITKFLTQSGTFKDGDLRVNKDGVRIISQLEPEVLSPIKPADDQLSLSDLDMVKVIGKGSSGVVQLVQHKWTGQFFALKVIQLNIDEAIRKAIAQELKINQSSQCPNLVTSYQSFYDNGAISLILEYMDGGSLADFLKSVKAIPDSYLSAIFRQVLQGLIYLHHDRHIIHRDLKPSNLLINHRGEVKITDFGVSTVMTNTAGLANTFVGTYNYMSPERIVGNKYGNKSDIWSLGLVVLECATGKFPYAPPNQEETWTSVFELMEAIVDQPPPALPSGNFSPELSSFISTCLQKDPNSRSSAKELMEHPFLNKYDYSGINLASYFTDAGSPLATLGNLSGTFSV

Variants of: B1
Details: with mpk4_arath MPK4, Q39024

Row | Variant | effect of a mutation on the interaction
1 | MNRGSLCPNPICLPPLEQSISKFLTQSGTFKDGDLRVNKDGIQTVSLSEPGAPPPIEPLDNQLSLADLEVIKVIGKGSSGNVQLVKHKLTQQFFALKVIQLNTEESTCRAISQELRINLSSQCPYLVSCYQSFYHNGLVSIILEFMDGGSLADLLKKVGKVPENMLSAICKRVLRGLCYIHHERRIIHRDLKPSNLLINHRGEVKITDFGVSKILTSESSLANSFVGTYPYMSPERISGSLYSNKSDIWSLGLVLLECATGKFPYTPPEHKKGWSSVYELVDAIVENPPPCAPSNLFSPEFCSFISQCVQKDPRDRKSAKELLEHKFVKMFEDSDTNLSAYFTDAGSLIPPLAN [T218E] | increasing interaction
2 | MNRGSLCPNPICLPPLEQSISKFLTQSGTFKDGDLRVNKDGIQTVSLSEPGAPPPIEPLDNQLSLADLEVIKVIGKGSSGNVQLVKHKLTQQFFALKVIQLNTEESTCRAISQELRINLSSQCPYLVSCYQSFYHNGLVSIILEFMDGGSLADLLKKVGKVPENMLSAICKRVLRGLCYIHHERRIIHRDLKPSNLLINHRGEVKITDFGVSKILTSTSSLANDFVGTYPYMSPERISGSLYSNKSDIWSLGLVLLECATGKFPYTPPEHKKGWSSVYELVDAIVENPPPCAPSNLFSPEFCSFISQCVQKDPRDRKSAKELLEHKFVKMFEDSDTNLSAYFTDAGSLIPPLAN [S224D] | increasing interaction

Variants of: B2
Details: with mpk6_arath MPK6, Q39026
mpk6_arath MPK6, Q39026, sequence (Q39026 whole entry): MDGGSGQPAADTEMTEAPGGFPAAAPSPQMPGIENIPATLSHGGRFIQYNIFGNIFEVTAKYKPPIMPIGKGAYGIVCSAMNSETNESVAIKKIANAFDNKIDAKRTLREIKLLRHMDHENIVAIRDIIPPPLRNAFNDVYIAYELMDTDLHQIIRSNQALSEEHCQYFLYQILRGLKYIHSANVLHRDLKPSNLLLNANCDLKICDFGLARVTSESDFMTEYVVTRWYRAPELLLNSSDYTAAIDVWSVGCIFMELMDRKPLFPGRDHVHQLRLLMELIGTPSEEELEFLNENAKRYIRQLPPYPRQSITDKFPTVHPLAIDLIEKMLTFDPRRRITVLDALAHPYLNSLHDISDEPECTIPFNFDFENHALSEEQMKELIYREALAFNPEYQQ

Row | Variant | effect of a mutation on the interaction
3 | MKKGGFSNNLKLAIPVAGEQSITKFLTQSGTFKDGDLRVNKDGVRIISQLEPEVLSPIKPADDQLSLSDLDMVKVIGKGSSGVVQLVQHKWTGQFFALKVIQLNIDEAIRKAIAQELKINQSSQCPNLVTSYQSFYDNGAISLILEYMDGGSLADFLKSVKAIPDSYLSAIFRQVLQGLIYLHHDRHIIHRDLKPSNLLINHRGEVKITDFGVSTVMTNDAGLANTFVGTYNYMSPERIVGNKYGNKSDIWSLGLVVLECATGKFPYAPPNQEETWTSVFELMEAIVDQPPPALPSGNFSPELSSFISTCLQKDPNSRSSAKELMEHPFLNKYDYSGINLASYFTDAGSPLATLGNLSGTFSV [T220D] | increasing interaction
4 | MKKGGFSNNLKLAIPVAGEQSITKFLTQSGTFKDGDLRVNKDGVRIISQLEPEVLSPIKPADDQLSLSDLDMVKVIGKGSSGVVQLVQHKWTGQFFALKVIQLNIDEAIRKAIAQELKINQSSQCPNLVTSYQSFYDNGAISLILEYMDGGSLADFLKSVKAIPDSYLSAIFRQVLQGLIYLHHDRHIIHRDLKPSNLLINHRGEVKITDFGVSTVMTNTAGLANEFVGTYNYMSPERIVGNKYGNKSDIWSLGLVVLECATGKFPYAPPNQEETWTSVFELMEAIVDQPPPALPSGNFSPELSSFISTCLQKDPNSRSSAKELMEHPFLNKYDYSGINLASYFTDAGSPLATLGNLSGTFSV [T226E] | increasing interaction

Variants of: B2
Details: with mpk10_arath MPK10, Q9M1Z5
mpk10_arath MPK10, Q9M1Z5, sequence (Q9M1Z5 whole entry): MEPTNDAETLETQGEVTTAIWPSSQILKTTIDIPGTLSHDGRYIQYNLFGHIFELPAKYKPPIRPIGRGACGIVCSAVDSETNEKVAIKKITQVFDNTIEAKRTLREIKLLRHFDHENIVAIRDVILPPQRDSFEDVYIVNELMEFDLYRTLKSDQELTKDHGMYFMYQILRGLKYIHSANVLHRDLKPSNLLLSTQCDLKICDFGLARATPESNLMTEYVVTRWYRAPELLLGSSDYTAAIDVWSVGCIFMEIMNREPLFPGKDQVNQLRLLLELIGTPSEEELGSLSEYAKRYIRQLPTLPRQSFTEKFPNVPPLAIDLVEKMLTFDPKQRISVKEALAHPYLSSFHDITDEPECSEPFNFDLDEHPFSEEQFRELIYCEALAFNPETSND

Row | Variant | effect of a mutation on the interaction
5 | MKKGGFSNNLKLAIPVAGEQSITKFLTQSGTFKDGDLRVNKDGVRIISQLEPEVLSPIKPADDQLSLSDLDMVKVIGKGSSGVVQLVQHKWTGQFFALKVIQLNIDEAIRKAIAQELKINQSSQCPNLVTSYQSFYDNGAISLILEYMDGGSLADFLKSVKAIPDSYLSAIFRQVLQGLIYLHHDRHIIHRDLKPSNLLINHRGEVKITDFGVSTVMTNDAGLANTFVGTYNYMSPERIVGNKYGNKSDIWSLGLVVLECATGKFPYAPPNQEETWTSVFELMEAIVDQPPPALPSGNFSPELSSFISTCLQKDPNSRSSAKELMEHPFLNKYDYSGINLASYFTDAGSPLATLGNLSGTFSV [T220D] | increasing interaction
6 | MKKGGFSNNLKLAIPVAGEQSITKFLTQSGTFKDGDLRVNKDGVRIISQLEPEVLSPIKPADDQLSLSDLDMVKVIGKGSSGVVQLVQHKWTGQFFALKVIQLNIDEAIRKAIAQELKINQSSQCPNLVTSYQSFYDNGAISLILEYMDGGSLADFLKSVKAIPDSYLSAIFRQVLQGLIYLHHDRHIIHRDLKPSNLLINHRGEVKITDFGVSTVMTNTAGLANEFVGTYNYMSPERIVGNKYGNKSDIWSLGLVVLECATGKFPYAPPNQEETWTSVFELMEAIVDQPPPALPSGNFSPELSSFISTCLQKDPNSRSSAKELMEHPFLNKYDYSGINLASYFTDAGSPLATLGNLSGTFSV [T226E] | increasing interaction

Variants of: B2
Details: with mpk13_arath MPK13, Q9LQQ9
mpk13_arath MPK13, Q9LQQ9, sequence (Q9LQQ9 whole entry): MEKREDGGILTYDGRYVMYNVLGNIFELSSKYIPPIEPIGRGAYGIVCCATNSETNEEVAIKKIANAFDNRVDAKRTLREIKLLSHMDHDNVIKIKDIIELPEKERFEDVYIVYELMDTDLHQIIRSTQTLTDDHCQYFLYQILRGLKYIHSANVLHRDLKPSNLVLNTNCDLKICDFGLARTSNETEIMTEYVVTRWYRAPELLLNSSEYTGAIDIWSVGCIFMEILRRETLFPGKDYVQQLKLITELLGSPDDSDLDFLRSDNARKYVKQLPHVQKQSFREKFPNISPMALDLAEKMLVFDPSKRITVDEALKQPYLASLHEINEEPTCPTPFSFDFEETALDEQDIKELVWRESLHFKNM

Row | Variant | effect of a mutation on the interaction
7 | MKKGGFSNNLKLAIPVAGEQSITKFLTQSGTFKDGDLRVNKDGVRIISQLEPEVLSPIKPADDQLSLSDLDMVKVIGKGSSGVVQLVQHKWTGQFFALKVIQLNIDEAIRKAIAQELKINQSSQCPNLVTSYQSFYDNGAISLILEYMDGGSLADFLKSVKAIPDSYLSAIFRQVLQGLIYLHHDRHIIHRDLKPSNLLINHRGEVKITDFGVSTVMTNDAGLANTFVGTYNYMSPERIVGNKYGNKSDIWSLGLVVLECATGKFPYAPPNQEETWTSVFELMEAIVDQPPPALPSGNFSPELSSFISTCLQKDPNSRSSAKELMEHPFLNKYDYSGINLASYFTDAGSPLATLGNLSGTFSV [T220D] | increasing interaction
8 | MKKGGFSNNLKLAIPVAGEQSITKFLTQSGTFKDGDLRVNKDGVRIISQLEPEVLSPIKPADDQLSLSDLDMVKVIGKGSSGVVQLVQHKWTGQFFALKVIQLNIDEAIRKAIAQELKINQSSQCPNLVTSYQSFYDNGAISLILEYMDGGSLADFLKSVKAIPDSYLSAIFRQVLQGLIYLHHDRHIIHRDLKPSNLLINHRGEVKITDFGVSTVMTNTAGLANEFVGTYNYMSPERIVGNKYGNKSDIWSLGLVVLECATGKFPYAPPNQEETWTSVFELMEAIVDQPPPALPSGNFSPELSSFISTCLQKDPNSRSSAKELMEHPFLNKYDYSGINLASYFTDAGSPLATLGNLSGTFSV [T226E] | increasing interaction
